Data taken from patent US20220315554A1, “COMPOUNDS COMPRISING A […] LIGAND AND USE THEREOF” (priority 2019, published 2022).
One block for each substance: values may come before it.

Experiments:
[1] = biological target: mu (MOP) (h) (human (printed (h))) (UniProt P35372); experiment: radioligand displacement, reference compound of the panel
[2] = biological target: T1, Recombinant human FAP (R&D systems, #3715-SE) (human)
T1 sequence: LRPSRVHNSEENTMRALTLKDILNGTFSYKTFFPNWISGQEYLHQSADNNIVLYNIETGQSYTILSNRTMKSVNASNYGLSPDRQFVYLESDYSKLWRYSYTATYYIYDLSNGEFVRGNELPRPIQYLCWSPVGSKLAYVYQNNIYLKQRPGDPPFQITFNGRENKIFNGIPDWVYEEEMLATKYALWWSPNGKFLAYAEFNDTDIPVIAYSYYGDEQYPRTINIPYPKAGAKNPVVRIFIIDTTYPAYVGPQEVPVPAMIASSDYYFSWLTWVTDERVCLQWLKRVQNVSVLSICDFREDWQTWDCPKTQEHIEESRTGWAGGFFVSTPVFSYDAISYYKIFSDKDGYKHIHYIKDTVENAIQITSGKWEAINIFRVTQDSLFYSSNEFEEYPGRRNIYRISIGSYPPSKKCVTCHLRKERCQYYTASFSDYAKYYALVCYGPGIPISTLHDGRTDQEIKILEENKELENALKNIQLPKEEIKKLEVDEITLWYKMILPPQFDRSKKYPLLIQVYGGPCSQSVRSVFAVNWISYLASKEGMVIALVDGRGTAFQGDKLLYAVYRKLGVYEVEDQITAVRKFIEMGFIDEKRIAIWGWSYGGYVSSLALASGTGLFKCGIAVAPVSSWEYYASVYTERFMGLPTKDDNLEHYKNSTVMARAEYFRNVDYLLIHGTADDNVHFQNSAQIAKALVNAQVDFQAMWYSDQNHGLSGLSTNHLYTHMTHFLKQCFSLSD

[3] = biological target: human fibroblast activation protein (FAP) on FAP-expressing human WI-38 fibroblasts (human); experiment: competition FACS, WI-38 cells, vs Cy5-labeled compound; D: pIC50 ≤6.0
[4] = biological target: Recombinant human DPP4 (R&D systems, #9168-SE) (human)
[5] = biological target: recombinant human PREP (R&D systems, #4308-SE) (human)
[6] = biological target: delta (DOP) (h) (human (printed (h))) (UniProt P41143); experiment: radioligand displacement, reference compound of the panel
[7] = biological target: human fibroblast activation protein (FAP) on FAP-expressing human WI-38 fibroblasts (human); experiment: competition FACS, WI-38 cells, vs Cy5-labeled compound; A: pIC50 >8.0
[8] = biological target: T2, COX2(h) (human (printed (h))) (UniProt P35354)
T2 sequence: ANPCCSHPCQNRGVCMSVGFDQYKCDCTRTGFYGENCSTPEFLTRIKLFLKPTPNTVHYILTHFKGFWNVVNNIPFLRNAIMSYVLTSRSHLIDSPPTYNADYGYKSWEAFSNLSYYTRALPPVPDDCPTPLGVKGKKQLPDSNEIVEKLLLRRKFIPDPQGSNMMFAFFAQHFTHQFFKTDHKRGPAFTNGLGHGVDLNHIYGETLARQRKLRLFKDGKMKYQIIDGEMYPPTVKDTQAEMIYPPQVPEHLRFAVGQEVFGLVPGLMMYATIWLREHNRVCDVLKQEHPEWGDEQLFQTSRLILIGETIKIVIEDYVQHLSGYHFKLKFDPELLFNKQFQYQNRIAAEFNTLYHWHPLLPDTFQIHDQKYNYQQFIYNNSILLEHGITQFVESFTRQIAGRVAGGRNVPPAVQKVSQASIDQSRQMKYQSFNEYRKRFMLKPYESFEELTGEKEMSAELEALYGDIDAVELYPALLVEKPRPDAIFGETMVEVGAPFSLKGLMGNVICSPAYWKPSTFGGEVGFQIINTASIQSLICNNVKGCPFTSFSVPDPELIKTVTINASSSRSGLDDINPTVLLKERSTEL

[9] = biological target: Lck kinase (h) (human (printed (h))) (UniProt P06239)
[10] = biological target: PDE4D2 (h) (human (printed (h))) (UniProt Q08499)
Sequence of PDE4D2 (h) (human (printed (h))) (Q08499 303-809): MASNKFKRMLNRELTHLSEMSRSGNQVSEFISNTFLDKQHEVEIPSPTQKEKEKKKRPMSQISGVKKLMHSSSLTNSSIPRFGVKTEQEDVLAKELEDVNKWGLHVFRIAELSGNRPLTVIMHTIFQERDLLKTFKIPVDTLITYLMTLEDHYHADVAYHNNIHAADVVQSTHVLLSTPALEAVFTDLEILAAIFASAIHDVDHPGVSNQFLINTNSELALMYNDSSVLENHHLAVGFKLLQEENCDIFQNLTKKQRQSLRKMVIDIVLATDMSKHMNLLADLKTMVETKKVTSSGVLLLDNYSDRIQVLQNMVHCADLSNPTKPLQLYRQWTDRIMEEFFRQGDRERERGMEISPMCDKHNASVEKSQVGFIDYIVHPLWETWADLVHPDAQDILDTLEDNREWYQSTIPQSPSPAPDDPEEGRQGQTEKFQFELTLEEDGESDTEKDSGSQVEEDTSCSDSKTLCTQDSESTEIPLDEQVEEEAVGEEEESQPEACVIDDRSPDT

[11] = biological target: PDE3A (h) (human (printed (h))) (UniProt Q14432)
[12] = biological target: Acetylcholinesterase (h) (human (printed (h))) (UniProt P22303)
[13] = biological target: COX1(h) (human (printed (h))) (UniProt P23219)
Sequence of COX1(h) (human (printed (h))) (P23219 24-599 limits assumed): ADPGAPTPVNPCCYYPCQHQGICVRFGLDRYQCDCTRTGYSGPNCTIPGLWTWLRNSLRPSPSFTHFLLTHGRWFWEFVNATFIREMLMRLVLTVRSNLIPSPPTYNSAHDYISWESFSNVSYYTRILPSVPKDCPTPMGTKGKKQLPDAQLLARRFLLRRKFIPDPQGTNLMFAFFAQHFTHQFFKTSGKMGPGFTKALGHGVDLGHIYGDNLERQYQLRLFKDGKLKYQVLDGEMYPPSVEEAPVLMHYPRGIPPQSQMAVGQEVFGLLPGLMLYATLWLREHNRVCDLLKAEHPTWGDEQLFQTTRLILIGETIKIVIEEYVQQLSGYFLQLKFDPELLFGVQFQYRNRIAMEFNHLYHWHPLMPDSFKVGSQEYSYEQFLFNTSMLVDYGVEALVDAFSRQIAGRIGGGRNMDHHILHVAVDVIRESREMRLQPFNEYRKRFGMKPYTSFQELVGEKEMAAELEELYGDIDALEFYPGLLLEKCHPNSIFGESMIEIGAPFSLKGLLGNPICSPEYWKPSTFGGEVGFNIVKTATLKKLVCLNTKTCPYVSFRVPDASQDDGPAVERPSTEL

[14] = biological target: KV channel; experiment: radioligand displacement, 10 uM compound
[15] = biological target: NMDA; experiment: radioligand displacement, 10 uM compound
[16] = biological target: MAO-A; experiment: radioligand displacement, 10 uM compound
[17] = biological target: BZD (central); experiment: radioligand displacement, 10 uM compound
[18] = biological target: Na+ channel (site 2); experiment: radioligand displacement, 10 uM compound
[19] = biological target: Ca2+ channel (L, dihydropyridine site); experiment: radioligand displacement, 10 uM compound
[20] = biological target: KV channel; experiment: radioligand displacement, reference compound of the panel

Ki [1]: 0.37 nM
Substance: DAMGO (peptide)

pIC50 Category (Activity) [2]: < 6 pIC50
pIC50 Category (FACS) [3]: < 6 pIC50
Substance: DOTA-Ttds-Hci-[Cys(3MeBn)-Pro-Pro-Thr-Gln-Phe-Cys]-Bal-OH (peptide)

pIC50 Category (FACS) [3]: < 6 pIC50
Substance: DOTA-Ttds-Hgl-[Cys(3MeBn)-Pro-Pro-Thr-Gln-Phe-Cys]-Bal-OH (peptide)

pIC50 (DPP4) [4]: < 6 pIC50
pIC50 (PREP) [5]: < 6 pIC50
Substance: DOTA-Ttds-Nle-[Cys(3MeBn)-Pro-Pro-Thr-Gln-Phe-Cys]-Bal-OH (3BP-3398) (peptide)

pIC50 (DPP4) [4]: < 6 pIC50
pIC50 (PREP) [5]: < 6 pIC50
Substance: DOTA-Ttds-Nle-[Cys(3MeBn)-Pro-Pro-Thr-Glu-Phe-Cys]-Asp-Pamb-Arg-NH2 (3BP-3321) (peptide)

pIC50 (DPP4) [4]: < 6 pIC50
pIC50 (PREP) [5]: 6.2 pIC50
Substance: DOTA-Ttds-Nle-[Cys(3MeBn)-Pro-Pro-Thr-Glu-Phe-Cys]-NH2 (3BP-3319) (peptide)

Ki [6]: 1.2 nM
Substance: DPDPE (peptide)

pIC50 (DPP4) [4]: < 6 pIC50
pIC50 (PREP) [5]: < 6 pIC50
Substance: H-Met-[Cys(3MeBn)-Pro-Pro-Thr-Glu-Phe-Cys]-Asp-His-Phe-Arg-Asp-Ttds-Lys(Bio)-NH2 (3BP-2881) (peptide)

pIC50 Category (FACS) [3]: < 6 pIC50
Substance: Hex-[Cys(3MeBn)-Pro-Eay-Thr-Glu-Phe-Cys]-NH2 (peptide)

pIC50 (DPP4) [4]: < 6 pIC50
pIC50 (PREP) [5]: < 6 pIC50
Substance: Hex-[Cys(3MeBn)-Pro-Pro-Thr-Gln-Phe-Cys]-Bhk(DOTA)-OH (3BP-3397) (peptide)

pIC50 Category (FACS) [3]: < 6 pIC50
Substance: Hex-[Cys(3MeBn)-Pro-Pro-Thr-Glu-Nmf-Cys]-NH2 (peptide)

pIC50 Category (Activity) [2]: < 6 pIC50
pIC50 Category (FACS) [3]: < 6 pIC50
Substance: Hex-[Cys(3MeBn)-Pro-Pro-Thr-Glu-Nphe-Cys]-NH2 (peptide)

pIC50 (DPP4) [4]: < 6 pIC50
pIC50 (PREP) [5]: < 6 pIC50
Substance: Hex-[Cys(3MeBn)-Pro-Pro-Thr-Glu-Phe-Cys]-Asp-His-Nmf-Arg-Ttds-Lys(DOTA)-NH2 (3BP-3275) (peptide)

pIC50 Category (Activity) [2]: < 6 pIC50
pIC50 Category (FACS) [3]: < 6 pIC50
Substance: Hex-[Cys(3MeBn)-Pro-Pro-Thr-Moo-Phe-Cys]-NH2 (peptide)

pIC50 Category (Activity) [2]: < 6 pIC50
pIC50 Category (FACS) [3]: < 6 pIC50
Substance: Hex-[Cys(3MeBn)-Pro-Pro-Thr-Nme-Phe-Cys]-NH2 (peptide)

pIC50 Category (FACS) [3]: < 6 pIC50
Substance: Hex-[Cys(3MeBn)-Pro-Tap-Thr-Glu-Phe-Cys]-NH2 (peptide)

pIC50 Category (Activity) [2]: > 8 pIC50
pIC50 Category (FACS) [7]: > 8 pIC50
Substance: Hex-[Cys(tMeBn(DOTA-AET))-Pro-Pro-Thr-Gln-Phe-Cys]-Gly-OH (peptide)

pIC50 Category (Activity) [2]: > 8 pIC50
pIC50 Category (FACS) [7]: > 8 pIC50
Substance: Hex-[Cys(tMeBn(DOTA-AET))-Pro-Pro-Thr-Gln-Phe-Cys]-Nmg-OH (peptide)

pIC50 Category (Activity) [2]: > 8 pIC50
pIC50 Category (FACS) [7]: > 8 pIC50
Substance: Hex-[Cys(tMeBn(InDOTA-AET))-Pro-Pro-Thr-Gln-Phe-AET] (peptide)

The next lines start with the substance.

Substance: DOTA-Ttds-Nle-[Cys(3MeBn)-Pro-Pro-Thr-Glu-Phe-Cys]-Asp-His-Phe-Arg-Asp-NH2 (3BP-3168) (peptide)
pIC50 (DPP4) [4]: < 6 pIC50
pIC50 (PREP) [5]: < 6 pIC50

Substance: DOTA-Ttds-Nle-[Cys(3MeBn)-Pro-Pro-Thr-Glu-Phe-Cys]-Asp-NH2 (3BP-3320) (peptide)
pIC50 (DPP4) [4]: < 6 pIC50
pIC50 (PREP) [5]: < 6 pIC50

Substance: Hex-[Cys(3MeBn)-Pro-4Dfp-Thr-Glu-Phe-Cys]-NH2 (peptide)
pIC50 Category (FACS) [3]: < 6 pIC50

Substance: Hex-[Cys(3MeBn)-Pro-Pro-Opc-Glu-Phe-Cys]-NH2 (peptide)
pIC50 Category (FACS) [3]: < 6 pIC50

Substance: Hex-[Cys(3MeBn)-Pro-Pro-Orn(Ac)-Glu-Phe-Cys]-NH2 (peptide)
pIC50 Category (FACS) [3]: < 6 pIC50

Substance: Hex-[Cys(3MeBn)-Pro-Pro-Thr-Glu-Bip-Cys]-NH2 (peptide)
pIC50 Category (Activity) [2]: < 6 pIC50
pIC50 Category (FACS) [3]: < 6 pIC50

Substance: Hex-[Cys(3MeBn)-Pro-Pro-Thr-Glu-Phe-Cys]-Asp-His-Phe-Arg-Asp-Ttds-Lys(DOTA)-NH2 (3BP-3105) (peptide)
pIC50 (DPP4) [4]: < 6 pIC50
pIC50 (PREP) [5]: < 6 pIC50

Substance: Hex-[Cys(3MeBn)-Pro-Pro-Thr-Glu-Phe-Pen]-NH2 (peptide)
pIC50 Category (FACS) [3]: < 6 pIC50

Substance: Hex-[Cys(3MeBn)-Pro-Pro-Thr-Glu-Tic-Cys]-NH2 (peptide)
pIC50 Category (FACS) [3]: < 6 pIC50

Substance: Hex-[Cys(tMeBn(DOTA-AET))-Pro-Pro-Thr-Gln-Phe-Cys]-Gab-OH (peptide)
pIC50 Category (Activity) [2]: > 8 pIC50
pIC50 Category (FACS) [7]: > 8 pIC50

Substance: Hex-[Cys(tMeBn(DOTA-AET))-Pro-Pro-Thr-Gln-Phe-Cys]-OH (3BP-3554) (peptide)
% inhibition of control enzyme activity [8]: -22%
% inhibition of control enzyme activity [9]: -4%
% inhibition of control enzyme activity [10]: -4%
% inhibition of control enzyme activity [11]: -37%
% inhibition of control enzyme activity [12]: 1%
% inhibition of control enzyme activity [13]: 8%
% Inhibition of Specific Binding [14]: 4%
% Inhibition of Specific Binding [15]: 1%
% Inhibition of Specific Binding [16]: -25%
% Inhibition of Specific Binding [17]: 5%
% Inhibition of Specific Binding [18]: 14%
% Inhibition of Specific Binding [19]: 54%

Substance: Hex-[Cys(tMeBn(DOTA-PP))-Pro-Pro-Thr-Gln-Phe-Cys]-Asp-NH2 (3BP-3407) (peptide)
% inhibition of control enzyme activity [8]: -14%
% inhibition of control enzyme activity [9]: 10%
% inhibition of control enzyme activity [10]: -5%
% inhibition of control enzyme activity [11]: -3%
% inhibition of control enzyme activity [12]: -6%
% inhibition of control enzyme activity [13]: 10%
% Inhibition of Specific Binding [14]: -5%
% Inhibition of Specific Binding [15]: 9%
% Inhibition of Specific Binding [16]: -5%
% Inhibition of Specific Binding [17]: -9%
% Inhibition of Specific Binding [18]: -7%
% Inhibition of Specific Binding [19]: 42%
pIC50 (DPP4) [4]: < 6 pIC50
pIC50 (PREP) [5]: < 6 pIC50

Substance: [3MeBn-Spa-Pro-Pro-Thr-Gln-Phe-Cys]-Asp-NH2 (3BP-3419) (peptide)
pIC50 (DPP4) [4]: < 6 pIC50
pIC50 (PREP) [5]: < 6 pIC50

Substance: alpha-dendrotoxin (from UniProt P00980) (peptide)
Ki [20]: 0.097 nM
